Reference: the supplement of paper PMC9233669
Fewer inactive variants are shown than the library holds.

Tests used:
[1] = test system: biotinyl-Phe-oxazolone; assay: self-aminoacylation, catalytic enhancement (BFO) (fold over background); higher = more active; k-Seq, kA / k0A0; sequences stand for … in GGGAAUGGAUCCACAUCUACGAAUUC…UUCACUGCAGACUUGACGAAGCUG
Outline: (§1)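 Mutagenized RNA pools with a 21-nt variable region (0.43 μM) reacted with each biotinyl-aminoacyl-oxazolone at 2–1250 μM. Reactions ran in 50 μL HEPES/NaCl/KCl/MgCl2/CaCl2 buffer with 5% acetonitrile, pH 6.9–7.0, for 90 minutes at room temperature. Streptavidin-captured RNA was quantified by triplicate qPCR and Illumina sequencing, and per-sequence fraction reacted was fit to a pseudo-first-order model with 1000 bootstraps. Catalytic enhancement is median kA divided by the uncatalyzed rate, the low-activity peak of a bimodal Gaussian fit.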

[2] = test system: biotinyl-Val-oxazolone; assay: self-aminoacylation, catalytic enhancement (BVO) (fold over background); higher = more active; k-Seq, kA / k0A0; sequences stand for … in GGGAAUGGAUCCACAUCUACGAAUUC…UUCACUGCAGACUUGACGAAGCUG
Outline: as §1

[3] = test system: biotinyl-Met-oxazolone; assay: self-aminoacylation, catalytic enhancement (BMO) (fold over background); higher = more active; k-Seq, kA / k0A0; sequences stand for … in GGGAAUGGAUCCACAUCUACGAAUUC…UUCACUGCAGACUUGACGAAGCUG
Outline: as §1

[4] = test system: biotinyl-Leu-oxazolone; assay: self-aminoacylation, catalytic enhancement (BLO) (fold over background); higher = more active; k-Seq, kA / k0A0; sequences stand for … in GGGAAUGGAUCCACAUCUACGAAUUC…UUCACUGCAGACUUGACGAAGCUG
Outline: as §1

[5] = test system: biotinyl-Trp-oxazolone; assay: self-aminoacylation, catalytic enhancement (BWO) (fold over background); higher = more active; k-Seq, kA / k0A0; sequences stand for … in GGGAAUGGAUCCACAUCUACGAAUUC…UUCACUGCAGACUUGACGAAGCUG
Outline: as §1

[6] = test system: biotinyl-Ile-oxazolone; assay: self-aminoacylation, catalytic enhancement (BIO) (fold over background); higher = more active; k-Seq, kA / k0A0; sequences stand for … in GGGAAUGGAUCCACAUCUACGAAUUC…UUCACUGCAGACUUGACGAAGCUG
Outline: as §1

Row | Sequence | self-aminoacylation [1] | self-aminoacylation [2] | self-aminoacylation [3] | self-aminoacylation [4] | self-aminoacylation [5] | self-aminoacylation [6]
1 | CUACUUCAUACAAUCGGGCUG [Fam1A.1 aminoacylation ribozyme variant] | 0.688 | 0.994 | 0.744 | 0.877 | 0.764 | 1.11
2 | CUACUUCAUACAAUCGGUCAG [Fam1A.1 aminoacylation ribozyme variant] | 0.985 | 0.699 | 0.644 | 0.662 | 0.721 | 0.738
3 | CUACUUCAUACAAUCGGUCCG [Fam1A.1 aminoacylation ribozyme variant] | 0.5 | 0.653 | 0.76 | 0.669 | 0.49 | 0.675
4 | CUACUUCAUACAAUCGGUGUG [Fam1A.1 aminoacylation ribozyme variant] | 0.976 | 0.956 | 0.959 | 1.14 | 0.545 | 0.839
5 | CUACUUCAUACAAUCGGUUUG [Fam1A.1 aminoacylation ribozyme variant] | 0.619 | 0.541 | 0.538 | 0.602 | 0.425 | 0.64
6 | CUACUUCAUACAAUGGGUCUG [Fam1A.1 aminoacylation ribozyme variant] | 0.65 | 0.757 | 0.755 | 0.803 | 0.764 | 0.805
7 | CUACUUCCAACAAUAGGUCUG [Fam1A.1 aminoacylation ribozyme variant] | 0.659 | 0.688 | 0.562 | 0.578 | 0.417 | 0.744
8 | CUACUUCCAACAAUCGGUCAG [Fam1A.1 aminoacylation ribozyme variant] | 1.04 | 0.774 | 0.62 | 0.663 | 0.518 | 0.795
9 | CUACUUCGAACAAACGGUCUG [Fam1A.1 aminoacylation ribozyme variant] | 0.51 | 0.805 | 0.664 | 0.535 | 0.619 | 0.709
10 | CUACUUCGAACAAGCGGUCUG [Fam1A.1 aminoacylation ribozyme variant] | 0.721 | 0.64 | 0.624 | 0.9 | 0.528 | 0.727
11 | CUACUUCGAACAAUCGGGCUG [Fam1A.1 aminoacylation ribozyme variant] | 0.645 | 1.54 | 1.02 | 1.24 | 1.57 | 1.3
12 | CUACUUCGAACGAUCGGUCUG [Fam1A.1 aminoacylation ribozyme variant] | 0.279 | 1.04 | 0.779 | 1.06 | 0.707 | 0.846
13 | CUACUUCGUACAAUCGGUCUG [Fam1A.1 aminoacylation ribozyme variant] | 0.251 | 0.685 | 0.519 | 0.596 | 0.327 | 0.571
14 | CUACUUCUAACAAGCGGUCUG [Fam1A.1 aminoacylation ribozyme variant] | 0.708 | 0.694 | 0.708 | 0.658 | 0.64 | 0.801
15 | CUACUUCUAACAAUCCGUCUG [Fam1A.1 aminoacylation ribozyme variant] | 0.709 | 0.792 | 0.679 | 0.656 | 0.586 | 0.905
16 | CUACUUCUAACAAUCGGACUG [Fam1A.1 aminoacylation ribozyme variant] | 0.602 | 0.572 | 0.398 | 0.495 | 0.419 | 0.566
17 | CUACUUCUAACAAUCGGUCUG [Fam1A.1 aminoacylation ribozyme variant] | 0.785 | 0.693 | 0.608 | 0.585 | 0.532 | 0.658
18 | CUACUUCUAACAAUCGGUGUG [Fam1A.1 aminoacylation ribozyme variant] | 0.728 | 0.687 | 0.91 | 0.907 | 0.569 | 0.844
19 | CUACUUCUAACCAUCGGUCUG [Fam1A.1 aminoacylation ribozyme variant] | 0.859 | 0.761 | 0.659 | 0.653 | 0.45 | 0.703
20 | CUACUUCUAUCAAUCGGUCUG [Fam1A.1 aminoacylation ribozyme variant] | 0.796 | 0.63 | 0.636 | 0.554 | 0.493 | 0.7
21 | CUACUUGAAACAAACGGUCUG [Fam1A.1 aminoacylation ribozyme variant] | 0.858 | 0.985 | 1.05 | 0.826 | 1.03 | 1.02
22 | CUACUUGAAACAAUCGGGCUG [Fam1A.1 aminoacylation ribozyme variant] | 1.26 | 1.93 | 1.95 | 1.83 | 2.37 | 1.51
23 | CUACUUGAAACAAUCGGUCCG [Fam1A.1 aminoacylation ribozyme variant] | 0.497 | 1.02 | 1.31 | 0.748 | 1.48 | 0.929
24 | CUACUUGAAACGAUCGGUCUG [Fam1A.1 aminoacylation ribozyme variant] | 0.916 | 1.05 | 1.11 | 1.24 | 0.726 | 0.968
25 | CUACUUGAUACAAUCGGUCUG [Fam1A.1 aminoacylation ribozyme variant] | 0.52 | 0.776 | 0.735 | 0.734 | 0.517 | 0.753
26 | CUACUUUAAACAAUCGGACUG [Fam1A.1 aminoacylation ribozyme variant] | 0.698 | 0.757 | 0.874 | 0.759 | 0.809 | 0.901
